# In article PMC8054193:
# Target: Strep-SUMO-Bos1
# Chain of Ssa1 (P10591 whole entry): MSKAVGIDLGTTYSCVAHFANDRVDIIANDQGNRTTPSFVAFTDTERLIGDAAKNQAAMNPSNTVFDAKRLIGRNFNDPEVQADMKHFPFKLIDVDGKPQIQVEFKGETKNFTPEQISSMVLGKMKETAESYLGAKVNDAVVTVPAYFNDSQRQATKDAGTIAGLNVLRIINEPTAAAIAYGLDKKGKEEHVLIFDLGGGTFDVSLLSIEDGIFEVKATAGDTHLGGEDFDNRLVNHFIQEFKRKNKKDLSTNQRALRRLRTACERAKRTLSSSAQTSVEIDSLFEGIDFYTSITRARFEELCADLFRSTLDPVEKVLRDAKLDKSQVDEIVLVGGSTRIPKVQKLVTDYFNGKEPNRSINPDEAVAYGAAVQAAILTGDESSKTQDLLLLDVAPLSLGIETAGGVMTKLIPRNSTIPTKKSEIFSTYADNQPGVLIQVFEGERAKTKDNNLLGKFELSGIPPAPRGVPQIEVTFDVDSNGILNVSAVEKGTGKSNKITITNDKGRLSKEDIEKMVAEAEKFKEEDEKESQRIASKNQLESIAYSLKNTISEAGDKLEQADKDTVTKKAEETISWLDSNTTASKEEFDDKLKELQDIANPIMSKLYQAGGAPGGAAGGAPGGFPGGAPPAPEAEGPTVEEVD
substance,measurement,value
Ssa1 (from UniProt P10591 1-642) (natural protein),"K (Soluble) from the Ssa1 concentration dependence of soluble Bos1 (sedimentation of 3 μM Bos1, Western blot, fit to Equation 2), Ssa1 alone",0.73 µM
same,"K (Soluble) from the Ssa1 concentration dependence of soluble Bos1 (sedimentation of 3 μM Bos1, Western blot, fit to Equation 2), equimolar Ssa1 and Ydj1",0.014 µM
